Source: patent US20110318339A1

Tests used:
[1] = biological target: rHuman ErbB2/Fc Chimera, CF (Cat# 1129-ER) (human) (UniProt P04626); assay: Multispot ECL; Fab 170 nM
[2] = biological target: rHuman EGF R/Fc Chimera, CF (Cat# 344-ER) (human) (UniProt P00533); assay: Multispot ECL; Fab 170 nM
[3] = biological target: rHuman CD44/Fc Chimera, CF (Cat# 3660-CD) (human) (UniProt P16070); assay: Multispot ECL; Fab 170 nM
[4] = biological target: rHuman IGF-1 sR, (IGF-1 sR), CF (Cat# 391-GR) (human) (UniProt P08069); assay: Multispot ECL; Fab 170 nM
[5] = biological target: rHuman Notch-1/Fc Chimera, CF (Cat# 3647-TK) (human) (UniProt P46531); assay: Multispot ECL; Fab 170 nM
[6] = biological target: rHuman HGF R/c-MET/Fc Chimera, CF (Cat# 358-MT/CF) (human) (UniProt P08581); assay: Multispot ECL; Fab 170 nM
[7] = biological target: rHuman Erythropoietin R/Fc Chimera, CF (Cat# 963-ER) (human) (UniProt P19235); assay: Multispot ECL; Fab 170 nM
Sequence of rHuman Erythropoietin R/Fc Chimera, CF (Cat# 963-ER) (human) (P19235 25-250, change not shown): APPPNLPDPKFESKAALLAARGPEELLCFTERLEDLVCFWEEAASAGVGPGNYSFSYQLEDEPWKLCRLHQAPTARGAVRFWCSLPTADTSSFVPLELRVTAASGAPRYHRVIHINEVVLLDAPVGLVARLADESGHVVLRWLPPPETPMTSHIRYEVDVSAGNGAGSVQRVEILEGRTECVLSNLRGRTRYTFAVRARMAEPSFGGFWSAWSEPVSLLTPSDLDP

[8] = biological target: rHuman P-Cadherin/Fc Chimera, CF (Cat# 861-PC) (human) (UniProt P22223); assay: Multispot ECL; Fab 170 nM
[9] = biological target: rHuman ErbB2/Fc Chimera, CF (Cat# 1129-ER) (human) (UniProt P04626); assay: Multispot ECL; Fab 85.0 nM
[10] = biological target: rHuman EGF R/Fc Chimera, CF (Cat# 344-ER) (human) (UniProt P00533); assay: Multispot ECL; Fab 85.0 nM
[11] = biological target: rHuman CD44/Fc Chimera, CF (Cat# 3660-CD) (human) (UniProt P16070); assay: Multispot ECL; Fab 85.0 nM
[12] = biological target: rHuman IGF-1 sR, (IGF-1 sR), CF (Cat# 391-GR) (human) (UniProt P08069); assay: Multispot ECL; Fab 85.0 nM
[13] = biological target: rHuman Notch-1/Fc Chimera, CF (Cat# 3647-TK) (human) (UniProt P46531); assay: Multispot ECL; Fab 85.0 nM
[14] = biological target: rHuman HGF R/c-MET/Fc Chimera, CF (Cat# 358-MT/CF) (human) (UniProt P08581); assay: Multispot ECL; Fab 85.0 nM
[15] = biological target: rHuman Erythropoietin R/Fc Chimera, CF (Cat# 963-ER) (human) (UniProt P19235); assay: Multispot ECL; Fab 85.0 nM
[16] = biological target: rHuman P-Cadherin/Fc Chimera, CF (Cat# 861-PC) (human) (UniProt P22223); assay: Multispot ECL; Fab 85.0 nM
[17] = biological target: rHuman ErbB2/Fc Chimera, CF (Cat# 1129-ER) (human) (UniProt P04626); assay: Multispot ECL; Fab […]
[18] = biological target: rHuman EGF R/Fc Chimera, CF (Cat# 344-ER) (human) (UniProt P00533); assay: Multispot ECL; Fab […]
[19] = biological target: rHuman CD44/Fc Chimera, CF (Cat# 3660-CD) (human) (UniProt P16070); assay: Multispot ECL; Fab […]
[20] = biological target: rHuman IGF-1 sR, (IGF-1 sR), CF (Cat# 391-GR) (human) (UniProt P08069); assay: Multispot ECL; Fab […]
[21] = biological target: rHuman Notch-1/Fc Chimera, CF (Cat# 3647-TK) (human) (UniProt P46531); assay: Multispot ECL; Fab […]
[22] = biological target: rHuman HGF R/c-MET/Fc Chimera, CF (Cat# 358-MT/CF) (human) (UniProt P08581); assay: Multispot ECL; Fab […]
[23] = biological target: rHuman Erythropoietin R/Fc Chimera, CF (Cat# 963-ER) (human) (UniProt P19235); assay: Multispot ECL; Fab […]
[24] = biological target: rHuman P-Cadherin/Fc Chimera, CF (Cat# 861-PC) (human) (UniProt P22223); assay: Multispot ECL; Fab […]
[25] = biological target: rHuman ErbB2/Fc Chimera, CF (Cat# 1129-ER) (human) (UniProt P04626); assay: Multispot ECL; Fab 340 nM
[26] = biological target: rHuman EGF R/Fc Chimera, CF (Cat# 344-ER) (human) (UniProt P00533); assay: Multispot ECL; Fab 340 nM
[27] = biological target: rHuman CD44/Fc Chimera, CF (Cat# 3660-CD) (human) (UniProt P16070); assay: Multispot ECL; Fab 340 nM
[28] = biological target: rHuman IGF-1 sR, (IGF-1 sR), CF (Cat# 391-GR) (human) (UniProt P08069); assay: Multispot ECL; Fab 340 nM
[29] = biological target: rHuman Notch-1/Fc Chimera, CF (Cat# 3647-TK) (human) (UniProt P46531); assay: Multispot ECL; Fab 340 nM
[30] = biological target: rHuman HGF R/c-MET/Fc Chimera, CF (Cat# 358-MT/CF) (human) (UniProt P08581); assay: Multispot ECL; Fab 340 nM
[31] = biological target: rHuman Erythropoietin R/Fc Chimera, CF (Cat# 963-ER) (human) (UniProt P19235); assay: Multispot ECL; Fab 340 nM
[32] = biological target: rHuman P-Cadherin/Fc Chimera, CF (Cat# 861-PC) (human) (UniProt P22223); assay: Multispot ECL; Fab 340 nM

ECL signal [1]: 964 | ECL signal [2]: 826 | ECL signal [3]: 660 | ECL signal [4]: 832 | ECL signal [5]: 816 | ECL signal [6]: 757 | ECL signal [7]: 790 | ECL signal [8]: 744 | ECL signal [9]: 844 | ECL signal [10]: 1000 | ECL signal [11]: 693 | ECL signal [12]: 891 | ECL signal [13]: 780 | ECL signal [14]: 998 | ECL signal [15]: 817 | ECL signal [16]: 709 | ECL signal [17]: 866 | ECL signal [18]: 528 | ECL signal [19]: 522 | ECL signal [20]: 646 | ECL signal [21]: 649 | ECL signal [22]: 607 | ECL signal [23]: 494 | ECL signal [24]: 421 | ECL signal [25]: 1230 | ECL signal [26]: 1210 | ECL signal [27]: 959 | ECL signal [28]: 1040 | ECL signal [29]: 1210 | ECL signal [30]: 1240 | ECL signal [31]: 1260 | ECL signal [32]: 1160
Substance: Fab VH4-34_IGHD7-27*01_IGHJ4*01 & V4-6_IGLJ4*01
